Experiment [1] concerns the target T1, Human CD47-His protein (human, UniProt Q08722 19-136). The experiment is described as follows: ELISA of hybridoma supernatant, binding activity to CD47.
In experiment [2] the target is T2, Cynomolgus CD47-His (cynomolgus, UniProt A0A2K5X523 19-139).
T2 construct: Bought protein; also called monkey CD47
The experiment is described as follows: ELISA on coated cynomolgus CD47-His, anti-human IgG HRP, OD450. On the technique in general: ELISA stands for enzyme-linked immunosorbent assay.

The target in experiment [3] is T3, CD47(19-136)-hFc (human, biotin-labelled in the Octet assay of Example 8 (sites not given)).
T3 construct: tied by name; also called CD47-hFc; CD47-hFc-Biotin
T3 sequence (chain, as listed by the source limits assumed): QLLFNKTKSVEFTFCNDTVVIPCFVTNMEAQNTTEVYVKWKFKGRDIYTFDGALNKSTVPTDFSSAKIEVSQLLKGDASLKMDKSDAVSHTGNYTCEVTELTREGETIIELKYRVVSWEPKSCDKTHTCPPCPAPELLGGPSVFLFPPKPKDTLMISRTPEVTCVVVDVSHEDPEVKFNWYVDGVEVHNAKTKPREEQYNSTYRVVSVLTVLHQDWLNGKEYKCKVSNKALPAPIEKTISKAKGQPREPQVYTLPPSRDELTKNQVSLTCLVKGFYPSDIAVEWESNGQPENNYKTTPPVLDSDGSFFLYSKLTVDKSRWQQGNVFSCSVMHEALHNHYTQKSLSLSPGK
The experiment is described as follows: BLI (Fortebio Octet RED96), biotinylated CD47-hFc on SA sensor, antibody in solution.

The target in experiment [4] is T4, CD47 on the surface of CHO-K1-E5 cells (human, UniProt Q08722 19-323).
T4 construct: Full length CD47 expressed from pTargeT-CD47 in CHO-K1 cells; also called CD47 on cell surface; CHO-K1-hCD47
Kind of experiment: FACS blocking assay on CHO-K1-E5 cells; blocked ligand SIRPα-Biotin, PE streptavidin.

The target in experiment [5] is T1, Human CD47-His protein. The experiment is described as follows: ELISA on coated human CD47-His, anti-human IgG HRP, OD450.
In experiment [6] the target is T4, CD47 on the surface of CHO-K1-E5 cells. The experiment is described as follows: cell based ELISA on fixed CHO-K1-E5 cells, anti-human IgG HRP, OD450.
In experiment [7] the target is PD-L1-mFc (UniProt Q9NZQ7 19-238, limits assumed). The experiment is described as follows: competition ELISA on coated CD80-hFc; antibody mixed with PD-L1-mFc, bound PD-L1-mFc detected with anti-mouse IgG HRP, OD450. Also on record: unit not given here.
Chain of PD-L1-mFc (Q9NZQ7 19-238 limits assumed): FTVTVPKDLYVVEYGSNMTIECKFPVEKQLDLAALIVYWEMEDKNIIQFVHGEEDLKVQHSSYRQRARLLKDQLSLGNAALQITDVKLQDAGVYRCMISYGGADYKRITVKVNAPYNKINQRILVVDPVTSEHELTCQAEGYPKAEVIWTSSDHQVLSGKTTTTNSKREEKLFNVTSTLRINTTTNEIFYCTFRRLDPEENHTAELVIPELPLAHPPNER
Experiment [8] concerns the target T4, CD47 on the surface of CHO-K1-E5 cells. Kind of experiment: FACS on CHO-K1-hCD47 cells, PE anti-human IgG.
Experiment [9] deals with T1, Human CD47-His protein. Kind of experiment: competition ELISA: CD47-His coated, SIRPα-biotin as competitor.
For experiment [10], the target named is T4, CD47 on the surface of CHO-K1-E5 cells. The experiment is described as follows: FACS on CHO-K1-hCD47 cells.
For experiment [11] the target is unchanged. Kind of experiment: FACS blocking assay on CHO-K1-hCD47 cells; blocked ligand SIRPα-biotin, PE-SA.
The target in experiment [12] is T5, hPD-L1 on the surface of CHO-K1-hPD-L1 and Raji-hPD-L1 cells (human, UniProt Q9NZQ7 19-238).
T5 construct: also called CHO-K1-PD-L1; human PD-L1 on cell surface
T5 sequence (Q9NZQ7 19-238): as the sequence (Q9NZQ7 19-238 limits assumed) above
The experiment is described as follows: FACS blocking assay on CHO-K1-hPD-L1 cells; blocked ligand PD-1-mFc (1 µg/mL), PE anti-mouse IgG.

Experiment [13] concerns the target Human PD-L1-His protein (human, UniProt Q9NZQ7 19-238, limits assumed). The experiment is described as follows: ELISA on coated human PD-L1-His, HRP anti-human IgG, OD450.
Experiment [14] concerns the target T1, Human CD47-His protein. Kind of experiment: ELISA on coated human CD47-His, HRP anti-human IgG, OD450.
Experiment [15] has as its target T5, hPD-L1 on the surface of CHO-K1-hPD-L1 …. Kind of experiment: FACS on CHO-K1-hPD-L1 cells, PE anti-human IgG.
In experiment [16] the target is T1, Human CD47-His protein. The experiment is described as follows: ELISA, human CD47-His coated.
Experiment [17] has as its target Human PD-L1-hFC protein (human, UniProt Q9NZQ7 19-238, limits assumed). The experiment is described as follows: competition ELISA on coated PD-L1-hFc; blocked ligand PD-1-mFc (1 µg/mL), anti-mouse IgG HRP, OD450.
For experiment [18], the target named is T4, CD47 on the surface of CHO-K1-E5 cells. The experiment is described as follows: competition FACS on CHO-K1-hCD47 cells, SIRPα-biotin as competitor.

Consider eight molecules from patent US20230090014A1 (NANJING SANHOME PHARMACEUTICAL, published 2023).

Chain of Human PD-L1-hFC protein (Q9NZQ7 19-238 limits assumed): as above
Chain of Human PD-L1-His protein (Q9NZQ7 19-238 limits assumed): as above

B1: SHC025-34 (antibody, IgG2c, V domains shown)
VH: QVQLQQPGAELVKPGASVKMSCKASGYTFTNYWITWVKQRPGQGLEWIGDITPGRGETNYNEKFKSKATLTVDTSSSTAYMQLTSLTSEDSAVYYCSRWGLRRGDYWGQGTSVTVSS
VL: ENVLTQSPAIMSASPGEKVTMTCRASSSVSSSYLNWYQQKSGASPKLWIYSTSNLASGVPGRFSGSGSGTSYSLTISSVEAEDAATYYCQQYSGYPLTFGAGTKLEVK
notes: tested as culture supernatant
On to B1, for which the binding result in [1] is reported as “binds”.

B2: Hu58A-14-PE (antibody, IgG4, V domains shown)
VH: EVQLLESGGGLVQPGGSLRLSCAASGFIFSRFGMAWVRQTPDKRLEWVATISSGGSYTYYPDSVKGRLTISRDNAKTTLYLQMRSLKSEDTAMYYCARQGLLDYLYALDYWGQGTAVTVSS
VL: DIQMTQSPSSVSASIGDRVTITCKASQDINSFLAWFQQKPGKSPRPLIYRAYRLVDGVPSRFSGVGSGQDYSLTISSLDYEDLGIYYCQQYVEFPPTFGAGTMLELK
notes: also called humanized anti-CD47 antibody Hu58A-14-PE
For orientation: EC50 (read off the curve) means the concentration giving half of the maximal effect. Broadly, the Kd is the constant that tells how readily two partners part at equilibrium. Usually koff stands for a measure of how fast the partners let go of each other. As usually defined, the kon is the second-order rate constant of association. In the case of B2, the “EC50 (read off the curve)” value in experiment [2] was ~0.1 nM; in experiment [5], ~0.08 nM; in experiment [6], ~0.1 nM. Further, in experiment [3], the equilibrium dissociation constant (Kd) was found to be 0.0946 nM. In experiment [3], the koff came to 0.000168 s⁻¹. The same molecule had a kon in [3] of 1.78e+06 M⁻¹ s⁻¹. In addition, the “IC50 (read off the curve)” value in experiment [4] is ~5 nM.

B3: SHC025-58 (antibody, IgG2b, V domains shown)
VH: EVQLVESGGDLVEPGGSLKLSCAASGFIFSRFGMAWVRQTPDKRLEWVATISSGGSYTYYPDSVKGRLTISRDNAKTTLYLQMRSLKSEDTAMYYCARQGLLDYLYALDYWGQGTAVTVSS
VL: DIKMIQSPSSMYAGLGERVTFNCKASQDINSFLCWFQQKPGKSPRPLIYRAYRLVDGVPSRFSGVGSGQDYSLTISSLDYEDLGIYYCQQYVEFPPTFGAGTMLELK
notes: tested as culture supernatant
As for B3, the binding result in experiment [1] was “binds”.

B4: AB6.12-IgG4P (antibody, V domains shown)
VH: QMQLVQSGAEVKKTGSSVKVSCKASGFNIKDYYLHWVRQAPGQALEWMGWIDPDQGDTEYAQKFQDRVTITRDRSMSTAYMELSSLRSEDTAMYYCNAAYGSSSYPMDYWGQGTTVTVSS
VL: NIQMTQSPSAMSASVGDRVTITCKASQDIHRYLSWFQQKPGKVPKHLIYRANRLVSGVPSRFSGSGSGTEFTLTISSLQPEDFATYYCLQYDEFPYTFGGGTKVEIKR
notes: Anti-CD47 control antibody from WO2013/119714; also called AB06.12-4P; AB06.12-P
Regarding B4, the “EC50 (read off the curve)” value in [2] was ~0.1 nM. In experiment [3], this molecule yielded a Kd of 0.101 nM, a koff of 0.000485 s⁻¹ and a kon of 4.8e+06 M⁻¹ s⁻¹. The “IC50 (read off the curve)” value in experiment [4] was ~1 nM. For the same molecule, the “EC50 (read off the curve)” value in [5] was ~0.08 nM. The “EC50 (read off the curve)” value in [6] was ~0.1 nM.

B5: Hu26T-31-PE (antibody, IgG4, V domains shown)
VH: QVQLVQSGAEVKKPGASVKVSCKASGYTFTDYYMNWVRQAPGQGLEWIGRIYPGSGLTYYNAKFKGRATVTADKSTSTVYMELSSLRSEDTAVYYCARTSYGSSFPHVWGQGTTVTVSS
VL: DIQMTQSPSSLSASVGDRVTITCKSSQSLLNVNDQKNYLAWYQQKPGKAPKLLIYFASTRESGVPSRFSGSGSGTDFTLTISSLQPEDFATYYCQQHYSTPLTFGQGTKLEIK
notes: also called humanized anti-CD47 antibody Hu26T-31-PE
For B5, the “EC50 (read off the curve)” value in experiment [2] was ~0.1 nM. In experiment [3], binding was put at a Kd of 0.0587 nM, the koff is 6.13e-05 s⁻¹ and the kon stood at 1.04e+06 M⁻¹ s⁻¹. The “IC50 (read off the curve)” value in [4] was ~1 nM. In [5], the “EC50 (read off the curve)” value is ~0.1 nM. Further, in [6], the “EC50 (read off the curve)” value was ~0.1 nM.

B6: ScFab (HuPL7-21Ks/Hu34-39Hs) (bispecific antibody)
chain 1: not shown
chain 2: EIVLTQSPGTLSLSPGERATLSCRASSSVSSSYLNWYQQKSGASPKLWIYSTSNLASGVPGRFSGSGSGTSYSLTISSVEAEDAATYYCQQYSGYPLTFGAGTKLEVKRTVAAPSVFIFPPSDEQLKSGTASVVCLLNNFYPREAKVQWKVDNALQSGNSQESVTEQDSKDSTYSLSSTLTLSKADYEKHKVYACEVTHQGLSSPVTKSFNRGECGGGGSGGGGSGGGGSGGGGSGGGGSGGGGSQVQLQESGPGLVKPSQTLSLTCKASGYTFTNYWITWVKQRPGQGLEWIGDITPGRGETNYNQKFKGRVTLTVDISASTAYMELSSLRSEDTAVYYCSRWGLRRGDYWGQGTSVTVSSASTKGPSVFPLAPCSRSTSESTAALGCLVKDYFPEPVTVSWNSGALTSGVHTFPAVLQSSGLYSLSSVVTVPSSSLGTKTYTCNVDHKPSNTKVDKRVESKYGPPCPPCPAPEFEGGPSVFLFPPKPKDTLMISRTPEVTCVVVDVSQEDPEVQFNWYVDGVEVHNAKTKPREEQFNSTYRVVSVLTVLHQDWLNGKEYKCKVSNKGLPSSIEKTISKAKGQPREPQVCTLPPSQEEMTKNQVSLSCAVKGFYPSDIAVEWESNGQPENNYKTTPPVLDSDGSFFLVSRLTVDKSRWQEGNVFSCSVMHEALHNHYTQKSLSLSLGK
notes: also called BiAb; Bi Ab
For B6, the “IC50 (read off the curve)” value is ~10 in [7], ~8 nM in [11], ~3 nM in [12] and ~1000 nM in experiment [17]. Further, the “EC50 (read off the curve)” value was ~10 nM in experiment [8], ~200 nM in experiment [13], ~2000 nM in experiment [14] and ~2 nM in experiment [15]. The “fold increase of IC50 against Hu34-39-PE” value is ~40 times in [9] and 3 times in experiment [18]. Also, in experiment [10], the “fold decrease of Emax against Hu34-39-PE” value was ~2 times. Also, in experiment [10], the “fold increase of EC50 against Hu34-39-PE” value was ~4 times. For the same molecule, in [16], the “fold increase of binding EC50 against Hu34-39-PE” value came to 40 fold.

B7: ScFab (HuPL16-42Ks/Hu34-39Hs) (bispecific antibody)
chain 1: not shown
chain 2: EIVLTQSPGTLSLSPGERATLSCRASSSVSSSYLNWYQQKSGASPKLWIYSTSNLASGVPGRFSGSGSGTSYSLTISSVEAEDAATYYCQQYSGYPLTFGAGTKLEVKRTVAAPSVFIFPPSDEQLKSGTASVVCLLNNFYPREAKVQWKVDNALQSGNSQESVTEQDSKDSTYSLSSTLTLSKADYEKHKVYACEVTHQGLSSPVTKSFNRGECGGGGSGGGGSGGGGSGGGGSGGGGSGGGGSQVQLQESGPGLVKPSQTLSLTCKASGYTFTNYWITWVKQRPGQGLEWIGDITPGRGETNYNQKFKGRVTLTVDISASTAYMELSSLRSEDTAVYYCSRWGLRRGDYWGQGTSVTVSSASTKGPSVFPLAPCSRSTSESTAALGCLVKDYFPEPVTVSWNSGALTSGVHTFPAVLQSSGLYSLSSVVTVPSSSLGTKTYTCNVDHKPSNTKVDKRVESKYGPPCPPCPAPEFEGGPSVFLFPPKPKDTLMISRTPEVTCVVVDVSQEDPEVQFNWYVDGVEVHNAKTKPREEQFNSTYRVVSVLTVLHQDWLNGKEYKCKVSNKGLPSSIEKTISKAKGQPREPQVCTLPPSQEEMTKNQVSLSCAVKGFYPSDIAVEWESNGQPENNYKTTPPVLDSDGSFFLVSRLTVDKSRWQEGNVFSCSVMHEALHNHYTQKSLSLSLGK
As for B7, the “EC50 (read off the curve)” value was ~10 nM in experiment [8], ~2000 nM in experiment [14] and ~2 nM in experiment [15]. Besides, the “fold increase of IC50 against Hu34-39-PE” value was ~40 times in experiment [9] and 3 times in experiment [18]. The “fold decrease of Emax against Hu34-39-PE” value in [10] was ~2 times. In addition, in experiment [10], the “fold increase of EC50 against Hu34-39-PE” value was ~4 times. In addition, the “IC50 (read off the curve)” value in experiment [11] and in experiment [12] was ~5 nM each time. The “fold increase of binding EC50 against Hu34-39-PE” value in [16] was ~40 times.

B8: SHC025-26 (antibody, IgG1, V domains shown)
VH: QVQLKQSGAELVRPGASVKLSCKASGYIFTDYYMNWVKQRPGQGLEWIARIYPGSGLTYYNAKFKGKATVTAEKSSSTAYMQLSSLTSEDSAVYFCARCSYGSSFPHVWGTGTTVTVSS
VL: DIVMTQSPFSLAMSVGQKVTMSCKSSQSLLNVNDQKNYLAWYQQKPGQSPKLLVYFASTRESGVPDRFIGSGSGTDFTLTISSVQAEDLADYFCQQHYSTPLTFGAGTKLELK
notes: tested as culture supernatant
For B8, the binding result in experiment [1] is recorded as “binds”.
